Results taken from article PMC3226747 (Nature, 2011).
Where no end group is shown, it is not given here. [ ]: non-standard residue; d: D form. pGlu = O=C1CC[C@@H](C(=O)O)N1

Target: T1, MitTxβ (Micrurus tener tener (Texas coral snake), UniProt G9I930 31-149, disulfide bonds)
T1 sequence: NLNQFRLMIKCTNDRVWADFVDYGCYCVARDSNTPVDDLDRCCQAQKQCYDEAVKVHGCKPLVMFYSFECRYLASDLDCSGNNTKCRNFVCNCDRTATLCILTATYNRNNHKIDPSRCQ
Assay: ITC

B1: MitTxα (natural protein)
chain: [pGlu]IRPAFCYEDPPFFQKCGAFVDSYYFNRSRITCVHFFYGQCDVNQNHFTTMSECNRVCHG
modifications: not fully specified (bridges); also: disulfide bonds, pairing not given here
Kd: 12.2 ± 3.1 nM
